pKd: −log10 of the molar value.
Legend:
[1] = biological target: SLAM (Canis lupus familiaris) (UniProt Q95MM9); conditions: cited from earlier work
[2] = biological target: head domain of measles virus hemagglutinin, Edmonston vaccine strain (measles virus, Edmonston strain) (UniProt P08362); test: SPR
[3] = biological target: head domain of measles virus hemagglutinin, IC-B wild-type strain (measles virus, IC-B strain) (UniProt Q786F2); test: SPR
Chain of UniProt Q786F2 (Q786F2 149-617): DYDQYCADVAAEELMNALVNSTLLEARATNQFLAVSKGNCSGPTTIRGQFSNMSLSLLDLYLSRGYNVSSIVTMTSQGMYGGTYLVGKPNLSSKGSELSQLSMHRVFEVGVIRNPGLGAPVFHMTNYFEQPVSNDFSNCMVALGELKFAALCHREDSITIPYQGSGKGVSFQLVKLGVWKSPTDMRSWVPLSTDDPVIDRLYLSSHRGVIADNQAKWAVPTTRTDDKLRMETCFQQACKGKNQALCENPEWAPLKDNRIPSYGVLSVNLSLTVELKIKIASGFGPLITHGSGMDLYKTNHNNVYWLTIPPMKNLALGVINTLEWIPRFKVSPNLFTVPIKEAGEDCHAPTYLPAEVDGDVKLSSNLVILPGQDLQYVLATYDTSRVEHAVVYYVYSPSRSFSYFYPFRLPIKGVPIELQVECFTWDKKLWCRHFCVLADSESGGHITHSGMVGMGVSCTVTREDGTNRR

Chain of UniProt P08362 (P08362 149-617): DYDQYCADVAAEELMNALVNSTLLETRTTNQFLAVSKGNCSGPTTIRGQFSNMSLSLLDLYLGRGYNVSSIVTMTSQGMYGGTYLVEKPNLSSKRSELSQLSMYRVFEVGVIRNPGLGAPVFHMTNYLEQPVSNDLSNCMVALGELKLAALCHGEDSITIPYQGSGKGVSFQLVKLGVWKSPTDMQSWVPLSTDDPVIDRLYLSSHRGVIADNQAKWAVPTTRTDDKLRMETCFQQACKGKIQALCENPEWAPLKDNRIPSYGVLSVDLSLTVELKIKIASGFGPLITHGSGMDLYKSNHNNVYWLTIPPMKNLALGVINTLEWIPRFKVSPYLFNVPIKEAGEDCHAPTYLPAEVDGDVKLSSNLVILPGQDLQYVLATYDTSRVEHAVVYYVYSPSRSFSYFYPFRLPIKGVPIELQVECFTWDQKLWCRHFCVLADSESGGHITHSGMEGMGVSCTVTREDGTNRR
Chain of UniProt Q95MM9 (Q95MM9 27-342): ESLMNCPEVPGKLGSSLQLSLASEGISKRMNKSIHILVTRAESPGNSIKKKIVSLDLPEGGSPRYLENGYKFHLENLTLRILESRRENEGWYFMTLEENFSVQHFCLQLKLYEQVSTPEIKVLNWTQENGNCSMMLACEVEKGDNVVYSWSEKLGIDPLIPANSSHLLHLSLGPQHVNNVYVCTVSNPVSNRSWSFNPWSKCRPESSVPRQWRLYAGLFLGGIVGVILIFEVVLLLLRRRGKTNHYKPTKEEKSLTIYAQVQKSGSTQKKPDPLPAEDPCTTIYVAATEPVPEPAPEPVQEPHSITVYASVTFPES

Substance | pKd [1] | pKd [2] | koff [2] [s⁻¹] | kon [2] [M⁻¹ s⁻¹] | pKd [3] | koff [3] [s⁻¹] | kon [3] [M⁻¹ s⁻¹]
CDV-A75/17 hemagglutinin (from UniProt Q65999) | 5.10 | – | – | – | – | – | –
soluble SLAM ectodomain (V-set and C2) from cotton-top tamarin (domain or fragment) | – | 7.33 | 0.000952 | 20400 | 6.61 | 0.00241 | 9890

From PMC6722581
